Laboratory results as given in publication PMC7617692, “Structural evolution of fibril polymorphs during amyloid assembly” (Cell, 2023).
Bridge positions count the residues as written; N and C are the ends. Ends that are not written are not given here.

Biological target: the molecule itself
Test: cryo-EM structure; fibrils grown quiescently in glass vials, 30 uM peptide, 20 mM ammonium acetate pH 6.8, room temperature; sampled at 3 weeks (lag phase), undiluted; helical reconstruction; repeated with a second reaction

B1: human islet amyloid polypeptide S20G variant (IAPP-S20G) (peptide)
chain: KCNTATCATQRLANFLVHSGNNFGAILSSTNVGSNTY-NH2
modifications: disulfide 2-7; N-terminus assumed
SMILES: CC[C@H](C)[C@H](NC(=O)[C@H](C)NC(=O)CNC(=O)[C@H](Cc1ccccc1)NC(=O)[C@H](CC(N)=O)NC(=O)[C@H](CC(N)=O)NC(=O)CNC(=O)[C@H](CO)NC(=O)[C@H](Cc1c[nH]cn1)NC(=O)[C@@H](NC(=O)[C@H](CC(C)C)NC(=O)[C@H](Cc1ccccc1)NC(=O)[C@H](CC(N)=O)NC(=O)[C@H](C)NC(=O)[C@H](CC(C)C)NC(=O)[C@H](CCCNC(=N)N)NC(=O)[C@H](CCC(N)=O)NC(=O)[C@@H](NC(=O)[C@H](C)NC(=O)[C@@H]1CSSC[C@H](NC(=O)[C@@H](N)CCCCN)C(=O)N[C@@H](CC(N)=O)C(=O)N[C@@H]([C@@H](C)O)C(=O)N[C@@H](C)C(=O)N[C@@H]([C@@H](C)O)C(=O)N1)[C@@H](C)O)C(C)C)C(=O)N[C@@H](CC(C)C)C(=O)N[C@@H](CO)C(=O)N[C@@H](CO)C(=O)N[C@H](C(=O)N[C@@H](CC(N)=O)C(=O)N[C@H](C(=O)NCC(=O)N[C@@H](CO)C(=O)N[C@@H](CC(N)=O)C(=O)N[C@H](C(=O)N[C@@H](Cc1ccc(O)cc1)C(N)=O)[C@@H](C)O)C(C)C)[C@@H](C)O
notes: islet amyloid polypeptide (IAPP, amylin), human, 37-residue hormone, familial early-onset T2D variant S20G; Assembles into amyloid fibrils of two, three or four protofilaments; the number of chains in a fibril is open-ended; Purity >95% by analytical HPLC, mass 3873.3 Da; also called hIAPP-S20G; S20G-IAPP; source: synthetic peptide (Fmoc solid phase, oxidised, reverse-phase HPLC purified)
binding result: binds
